T1: His6-Pal2 (Pal2-deltaN65) (Saccharomyces cerevisiae, UniProt P38809 65-366)
T1 sequence: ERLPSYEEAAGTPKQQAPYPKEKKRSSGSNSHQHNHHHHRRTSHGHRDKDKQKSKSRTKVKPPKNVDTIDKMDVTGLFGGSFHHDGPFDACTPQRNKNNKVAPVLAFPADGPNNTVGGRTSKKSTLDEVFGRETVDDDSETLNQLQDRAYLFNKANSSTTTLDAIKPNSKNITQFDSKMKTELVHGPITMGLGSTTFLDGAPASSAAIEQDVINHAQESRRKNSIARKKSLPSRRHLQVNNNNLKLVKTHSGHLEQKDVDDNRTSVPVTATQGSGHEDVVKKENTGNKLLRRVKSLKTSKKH

T2: His6-Pal1 (Pal1-deltaN) (Saccharomyces cerevisiae, UniProt Q05518 165-499)
T2 sequence: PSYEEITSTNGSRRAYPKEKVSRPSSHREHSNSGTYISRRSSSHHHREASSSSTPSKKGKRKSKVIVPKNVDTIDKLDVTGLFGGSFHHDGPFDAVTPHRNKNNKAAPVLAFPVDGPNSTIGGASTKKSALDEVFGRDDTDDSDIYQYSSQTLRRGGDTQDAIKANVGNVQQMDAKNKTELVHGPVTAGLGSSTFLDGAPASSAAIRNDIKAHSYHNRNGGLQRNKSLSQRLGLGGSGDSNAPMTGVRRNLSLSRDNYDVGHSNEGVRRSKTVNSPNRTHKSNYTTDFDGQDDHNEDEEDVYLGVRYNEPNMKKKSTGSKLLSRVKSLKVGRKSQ

B1: unlabeled 3'-BE transcript (structured_RNA)
RNA: GGGCGUGAGGUUGGCGCGCCCUCCUACAAUUAUUUGUGGCGACUGGGCAGCGACACUGAACA
B2: Flc-3'-BE (HAC1 3'-UTR bipartite element) (structured_RNA)
RNA: CGUGAGGUUGGCGCGCCCUCCUACAAUUAUUUGUGGCGACUGGGCAGCGACACUGAACA

Assays:
[1] = target: T1, His6-Pal2 (Pal2-deltaN65); test: competition
His6-Pal1 (Pal1-deltaN) = target: T2, His6-Pal1 (Pal1-deltaN); test: EMSA
[2] = target: T1, His6-Pal2 (Pal2-deltaN65); test: EMSA
His6-Ypt1 = His6-Ypt1 (UniProt P01123 1-206); test: EMSA
Sequence of His6-Ypt1 (P01123 whole entry): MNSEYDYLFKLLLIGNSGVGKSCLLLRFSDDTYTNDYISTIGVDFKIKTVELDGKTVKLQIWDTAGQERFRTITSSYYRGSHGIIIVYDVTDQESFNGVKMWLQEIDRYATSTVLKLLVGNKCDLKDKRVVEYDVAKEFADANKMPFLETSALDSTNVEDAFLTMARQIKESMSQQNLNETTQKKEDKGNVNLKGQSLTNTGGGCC

| Binder | binding result [1] | binding result (His6-Pal1 (Pal1-deltaN)) | binding result [2] | binding result (His6-Ypt1) |
| --- | --- | --- | --- | --- |
| B1 | binds |  |  |  |
| B2 |  | binds | binds | no binding |

Source: publication PMC8285061
